Patent US20180371086A1 (Gilead, published 2018)

Columns and labels:
Assay in all cases: cell-based or functional assay
[1] = biological target: HIV-1 Env of virus MGRM-C-011 (HIV-1)
[2] = biological target: HIV-1 Env of virus MGRM-D-001 (HIV-1)
[3] = biological target: HIV-1 Env of virus MGRM-D-011 (HIV-1)
[4] = biological target: HIV-1 Env of virus MGRM-Chronic-B-004 (HIV-1)
[5] = biological target: HIV-1 Env of virus MGRM-C-006 (HIV-1)
[6] = biological target: HIV-1 Env of virus MGRM-Chronic-B-020 (HIV-1)
[7] = biological target: HIV-1 Env of virus MGRM-Acute-B-003 (HIV-1)
[8] = biological target: HIV-1 Env of virus MGRM-G-019 (HIV-1)
[9] = biological target: HIV-1 Env of virus MGRM-A-006 (HIV-1)
[10] = biological target: HIV-1 Env of virus MGRM-Acute-B-006 (HIV-1)
[11] = biological target: HIV-1 Env of virus MGRM-Chronic-B-015 (HIV-1)
[12] = biological target: HIV-1 Env of virus MGRM-A-002 (HIV-1)
[13] = biological target: HIV-1 Env of virus MGRM-Chronic-B-012 (HIV-1)
[14] = biological target: HIV-1 Env of virus MGRM-F1-013 (HIV-1)
[15] = biological target: HIV-1 Env of virus MGRM-A-009 (HIV-1)
[16] = biological target: HIV-1 Env of virus MGRM-C-022 (HIV-1)
[17] = biological target: HIV-1 Env of virus MGRM-F1-015 (HIV-1)
[18] = biological target: HIV-1 Env of virus MGRM-G-011 (HIV-1)
[19] = biological target: HIV-1 Env of virus MGRM-G-004 (HIV-1)
[20] = biological target: HIV-1 Env of virus MGRM-Chronic-B-005 (HIV-1)
[21] = biological target: HIV-1 Env of virus MGRM-Chronic-B-009 (HIV-1)
[22] = biological target: HIV-1 Env of virus MGRM-C-004 (HIV-1)
[23] = biological target: HIV-1 Env of virus MGRM-Chronic-B-002 (HIV-1)
[24] = biological target: HIV-1 Env of virus MGRM-C-026 (HIV-1)
[25] = biological target: HIV-1 Env of virus MGRM-Chronic-B-006 (HIV-1)
[26] = biological target: HIV-1 Env of virus MGRM-AG-006 (HIV-1)
[27] = biological target: HIV-1 Env of virus MGRM-Chronic-B-010 (HIV-1)
[28] = biological target: HIV-1 Env of virus MGRM-C-018 (HIV-1)
[29] = biological target: HIV-1 Env of virus MGRM-G-024 (HIV-1)
[30] = biological target: HIV-1 Env of virus MGRM-Acute-B-001 (HIV-1)
[31] = biological target: HIV-1 Env of virus MGRM-C-020 (HIV-1)
[32] = biological target: HIV-1 Env of virus MGRM-A-014 (HIV-1)
[33] = biological target: HIV-1 Env of virus MGRM-C-023 (HIV-1)
[34] = biological target: HIV-1 Env of virus MGRM-G-013 (HIV-1)
[35] = biological target: HIV-1 Env of virus MGRM-F1-014 (HIV-1)
[36] = biological target: HIV-1 Env of virus MGRM-G-014 (HIV-1)
[37] = biological target: HIV-1 Env of virus MGRM-Acute-B-009 (HIV-1)
[38] = biological target: HIV-1 Env of virus MGRM-Chronic-B-003 (HIV-1)
[39] = biological target: HIV-1 Env of virus MGRM-Acute-B-005 (HIV-1)
[40] = biological target: HIV-1 Env of virus MGRM-Chronic-B-022 (HIV-1)
[41] = biological target: HIV-1 Env of virus MGRM-A-003 (HIV-1)
[42] = biological target: HIV-1 Env of virus MGRM-Chronic-B-019 (HIV-1)

B1: PGT121.60 hIgG1/hLambda (antibody)
heavy: QMQLQESGPGLVKPSETLSLTCSVSGASISDSYWSWIRRSPGKGLEWIGYVHKSGDTNYNPSLKSRVHLSLDTSKNQVSLSLTGVTAADSGKYYCARTLHGRRIYGIVAFNEWFTYFYMDVWGTGTQVTVSSASTKGPSVFPLAPSSKSTSGGTAALGCLVKDYFPEPVTVSWNSGALTSGVHTFPAVLQSSGLYSLSSVVTVPSSSLGTQTYICNVNHKPSNTKVDKKVEPKSCDKTHTCPPCPAPELLAGPDVFLFPPKPKDTLMISRTPEVTCVVVDVSHEDPEVKFNWYVDGVEVHNAKTKPREEQYNSTYRVVSVLTVLHQDWLNGKEYKCKVSNKALPLPEEKTISKAKGQPREPQVYTLPPSREEMTKNQVSLTCLVKGFYPSDIAVEWESNGQPENNYKTTPPVLDSDGSFFLYSKLTVDKSRWQQGNVFSCSVLHEALHSHYTQKSLSLSPGK
light: not shown
[1]
  PGT121.60 IC50: 0.0012 µg/mL
[2]
  PGT121.60 IC50: 0.431 µg/mL
[3]
  PGT121.60 IC50: 0.0043 µg/mL
[4]
  PGT121.60 IC50: 0.0013 µg/mL
[5]
  PGT121.60 IC50: 0.003 µg/mL
[6]
  PGT121.60 IC50: 0.0018 µg/mL
[7]
  PGT121.60 IC50: 0.0179 µg/mL
[8]
  PGT121.60 IC50: 0.0091 µg/mL
[9]
  PGT121.60 IC50: 4.05 µg/mL
[10]
  PGT121.60 IC50: 0.0966 µg/mL
[11]
  PGT121.60 IC50: 0.185 µg/mL
[12]
  PGT121.60 IC50: 0.0047 µg/mL
[13]
  PGT121.60 IC50: 0.0409 µg/mL
[14]
  PGT121.60 IC50: 0.0871 µg/mL
[15]
  PGT121.60 IC50: 0.0074 µg/mL
[16]
  PGT121.60 IC50: 0.0038 µg/mL
[17]
  PGT121.60 IC50: 11.6 µg/mL
[18]
  PGT121.60 IC50: 1.91 µg/mL
[19]
  PGT121.60 IC50: 0.046 µg/mL
[20]
  PGT121.60 IC50: 0.072 µg/mL
[21]
  PGT121.60 IC50: 0.0112 µg/mL
[22]
  PGT121.60 IC50: 0.0064 µg/mL
[23]
  PGT121.60 IC50: 0.0649 µg/mL
[24]
  PGT121.60 IC50: 0.0004 µg/mL
[25]
  PGT121.60 IC50: 0.002 µg/mL
[26]
  PGT121.60 IC50: 0.0106 µg/mL
[27]
  PGT121.60 IC50: 0.0074 µg/mL
[28]
  PGT121.60 IC50: 10.3 µg/mL
[29]
  PGT121.60 IC50: 0.0119 µg/mL
[30]
  PGT121.60 IC50: 0.0313 µg/mL
[31]
  PGT121.60 IC50: 14.9 µg/mL
[32]
  PGT121.60 IC50: 0.001 µg/mL
[33]
  PGT121.60 IC50: 0.0044 µg/mL
[34]
  PGT121.60 IC50: 1.5 µg/mL
[35]
  PGT121.60 IC50: 0.0509 µg/mL
[36]
  PGT121.60 IC50: 0.0034 µg/mL
[37]
  PGT121.60 IC50: 0.0016 µg/mL
[38]
  PGT121.60 IC50: 0.0079 µg/mL
[39]
  PGT121.60 IC50: 0.0014 µg/mL
[40]
  PGT121.60 IC50: 11.5 µg/mL
[41]
  PGT121.60 IC50: 0.0865 µg/mL
[42]
  PGT121.60 IC50: 0.199 µg/mL
